Sequences and labels used below:
B1: antibody 1-18 (antibody, V domains shown)
VH: QGRLFQSGAEVKRPGASVRISCRADDDPYTDDDTFTKYWTHWIRQAPGQRPEWLGVISPHFARPIYSYKFRDRLTLTRDSSLTAVYLELKGLQPDDSGIYFCARDPFGDRAPHYNYHMDVWGGGTAVIVSS
VL: EVVLTQSPAILSVSPGDRVILSCRASQGLDSSHLAWYRFKRGQIPTLVIFGTSNRARGTPDRFSGSGSGADFTLTISRVEPEDFATYYCQRYGGTPITFGGGTTLDKK
B2: antibody 1-55 (antibody, V domains shown)
VH: QRRLFQSGTEVKRPGASVKISCRADDDPYTDDDTFTKYYTHWIRQAPGQPPEWLGVISPHFARPIYSYKFRDRLTLTRDSSLTAVYFELRGLQPDDTGIYFCARDPFGDMYPHYNYHMDVWGGGTTVIVSA
VL: B1 VL with V2A, R24K, Q27E, D30S, H33D, R41G, T52A, A70T, S77N
B3: antibody 2-12 (antibody, V domains shown)
VH: QLVQSGGGVRRPGASVKISCETPEDTFTKYWLHWLRQAPGQGLEWMGVVSPHGGRPMFAFEFRDRLTLTRDIHTTTHFMELRGLTSDDTAVYYCARDPFGETFRGHDQPYRMDVWGGGTTIVVSS
VL: EPVLTQSPGTLSVSPGEGATLSCRARQGFSADHVAWFQKKPGRPPRLLIFEASRRASGTPERFSGSGSGPEYTLTITRVEAEDFAVYYCQSYGSITPLVFGGGTRVDVK

Numbering of substitutions follows the chain as printed.

3 molecules from patent US20240376183A1 (UNIVERSIT T ZU K LN, published 2024) can be followed below.

For the test, the target named is HIV-1 Env protein of virus strain 89-F1_2_25 (HIV-1). In words: cell-based or functional assay.
In the case of B1, the “IC50, TZM-bl pseudovirus neutralization assay” value was 7 ng/mL.

Take B2: the “IC50, TZM-bl pseudovirus neutralization assay” value came out at 14 ng/mL.

Take B3: the “IC50, TZM-bl pseudovirus neutralization assay” value was 6 ng/mL.
